Key:
N-CoR(RD3) = biological target: T1, N-CoR(RD3) (Homo sapiens, UniProt O75376); assay: Two-hybrid detection system for interaction of HDAC4 and N-CoR; format: cell-based; conditions: Jurkat cells; 22 hours after transfection
T1 construct: expressed in transfected cells; host or cells: Jurkat cells (ATCC, TIB-152)
T1 sequence (O75376 1005-1498): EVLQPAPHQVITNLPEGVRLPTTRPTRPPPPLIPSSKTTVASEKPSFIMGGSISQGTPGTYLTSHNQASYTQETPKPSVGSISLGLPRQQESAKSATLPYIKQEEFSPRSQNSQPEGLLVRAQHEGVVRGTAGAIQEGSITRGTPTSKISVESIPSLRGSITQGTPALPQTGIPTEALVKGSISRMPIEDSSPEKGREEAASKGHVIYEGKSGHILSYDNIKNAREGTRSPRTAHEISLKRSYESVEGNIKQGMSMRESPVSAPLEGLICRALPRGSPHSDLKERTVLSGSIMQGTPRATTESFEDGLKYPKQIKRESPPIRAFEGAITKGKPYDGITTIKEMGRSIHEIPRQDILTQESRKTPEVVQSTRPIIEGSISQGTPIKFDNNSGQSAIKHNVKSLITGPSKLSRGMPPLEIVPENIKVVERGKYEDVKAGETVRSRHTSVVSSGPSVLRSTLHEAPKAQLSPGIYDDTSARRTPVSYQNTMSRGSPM
Procedure: First, from the literature information in Mol. Cell, 2002, Vol. 9, p.45-57, the site corresponding to the RD3 sequence of human N-COR was determined (1005-1498a.a.). The human N-COR CDS base sequence was obtained from GenBank accession number AF044209, and human N-CoR(RD3) cDNA was amplified from human-lung-derived cDNA by the PCR method. The primers used were RD3-Bam-FW (SEQ ID NO:82) and RD3-Not-RV (SEQ ID NO:83) below. For the base sequence of human N-CoR(RD3), see SEQ ID NO:21; for the amino acid sequence encoded by the base sequence of human N-CoR (RD3), see SEQ ID NO:22. […]
Subsequently, 10 μg of pG5-Luc (Promega), 3 μg of BND and 3 μg of pACT, or 10 μg of pG5-Luc, 3 μg of pBND-N-CoR (RD3) and 3 μg of pACT-HDAC4, or 10 μg of pG5-Luc, 3 μg of pBND-N-CoR(RD3) and 3 μg of pACT-HDAC4 (H863L), were mixed respectively, and each mixture was transfected to 1×10^7 Jurkat cells (ATCC, TIB-152) by the electroporation method (BIO-RAD, Gene Pulser II, voltage 300 V, charge 975 μF, 400 μL). Twenty-two hours after transfection, luciferase activity in the cells was measured according to the manual of the Bright-Glo Luciferase Assay System (Promega) using a multi-label counter (1420 MULTILABEL COUNTER ARVO SX, WALLAC).

Jurkat cells = assay: Cell proliferation, Cell Counting Kit-8; format: cell-based, human; conditions: 10 μg expression plasmid; Jurkat cells versus HEL cells and 293 cells
Procedure: 10 μg of a plasmid for the expression of wild-type HDAC4 and the HDAC4 dominant negative variant (H863L) prepared in Example 6 was transfected to Jurkat cells, HEL cells and 293 cells.
1×10^7 Jurkat cells (ATCC, TIB-152) were transformed by the electroporation method (BIO-RAD, Gene Pulser II, voltage 300 V, charge 975 μF, 400 μL). After transformation, 2.5 mL of RPMI 1640 containing 10% FBS (MOREGATE) (10% FBS RPMI 1640) was added, and this mixture was dispensed to a 96-well white plate in a ratio of 50 μL/well. After cultivation under conditions of 37° C., 5% CO2 and saturated humidity for 5 hours, a liquid mixture of Phorbol 12-Myristate 13-Acetate (PMA, SIGMA), Ionomycin (SIGMA) and Anti-CD28 antibody (Pharmingen) in 10% FBS RPMI 1640 was added at 50 μL/well (the final concentrations were 50 ng/mL, 1 μg/mL and 75 ng/mL, respectively) to stimulate the Jurkat cells. After cultivation under conditions of 37° C., 5% CO2 and saturated humidity for 4 hours, the number of cell was confirmed using the Cell Counting Kit-8 (DOJIN) 8.75×10^6 HEL cells (accession number JCRBOO62, JCRB) were transformed by the electroporation method (BIO-RAD, Gene Pulser II, voltage 1750 V, charge 10 μF, 365 μL). After transformation, 2 mL of 10% FBS RPMI 1640 was added, and this mixture was dispensed to a 96-well white plate in a ratio of 50 μL/well. […]

B1: HDAC4 dominant negative variant (H863L): HDAC4 variant with H863L mutation, amino acid sequence SEQ ID NO:6, expressed from plasmid (protein, listed as Homo sapiens)
chain: MSSQSHPDGLSGRDQPVELLNPARVNHMPSTVDVATALPLQVAPSAVPMDLRLDHQFSLPVAEPALREQQLQQELLALKQKQQIQRQILIAEFQRQHEQLSRQHEAQLHEHIKQQQEMLAMKHQQELLEHQRKLERHRQEQELEKQHREQKLQQLKNKEKGKESAVASTEVKMKLQEFVLNKKKALAHRNLNHCISSDPRYWYGKTQHSSLDQSSPPQSGVSTSYNHPVLGMYDAKDDFPLRKTASEPNLKLRSRLKQKVAERRSSPLLRRKDGPVVTALKKRPLDVTDSACSSAPGSGPSSPNNSSGSVSAENGIAPAVPSIPAETSLAHRLVAREGSAAPLPLYTSPSLPNITLGLPATGPSAGTAGQQDTERLTLPALQQRLSLFPGTHLTPYLSTSPLERDGGAAHSPLLQHMVLLEQPPAQAPLVTGLGALPLHAQSLVGADRVSPSIHKLRQHRPLGRTQSAPLPQNAQALQHLVIQQQHQQFLEKHKQQFQQQQLQMNKIIPKPSEPARQPESHPEETEEELREHQALLDEPYLDRLPGQKEAHAQAGVQVKQEPIESDEEEAEPPREVEPGQRQPSEQELLFRQQALLLEQQRIHQLRNYQASMEAAGIPVSFGGHRPLSRAQSSPASATFPVSVQEPPTKPRFTTGLVYDTLMLKHQCTCGSSSSHPEHAGRIQSIWSRLQETGLRGKCECIRGRKATLEELQTVHSEAHTLLYGTNPLNRQKLDSKKLLGSLASVFVRLPCGGVGVDSDTIWNEVHSAGAARLAVGCVVELVFKVATGELKNGFAVVRPPGHHAEESTPMGFCYFNSVAVAAKLLQQRLSVSKILIVDWDVHHGNGTQQAFYSDPSVLYMSLLRYDDGNFFPGSGAPDEVGTGPGVGFNVNMAFTGGLDPPMGDAEYLAAFRTVVMPIASEFAPDVVLVSSGFDAVEGHPTPLGGYNLSARCFGYLTKQLMGLAGGRIVLALEGGHDLTAICDASEACVSALLGNELDPLPEKVLQQRPNANAVRSMEKVMEIHSKYWRCLQRTTSTAGRSLIEAQTCENEEAETVTAMASLSVGVKPAEKRPDEEPMEEEPPL
modifications: Dominant negative mutant (H863L) of human histone deacetylase-4 (HDAC4) gene
- interaction with N-CoR(RD3), GAL4 transcription activation (luciferase) (N-CoR(RD3)): did not interact with N-CoR(RD3)
- cell proliferation (number of cells) (Jurkat cells): cell proliferation inhibition specific for Jurkat cells

Reference: US20070123452A1, “Method of selecting novel immunosuppressant” (Astellas Pharma Inc., priority 2002, published 2007)
